Experimental data as given in patent US20220242958A1, “BISPECIFIC NANOBODIES” (Ablynx N.V., priority 2013, published 2022).
Substitutions are numbered along the chain they refer to. In names and notes the source's numbering stands.

Assays:
hCEACAM5 = target: T1, hCEACAM5 (Homo sapiens, UniProt P06731); assay: SPR (Biacore T100) on hCEACAM-5; format: binding
T1 construct: purchased R&D Systems 4128-CM
T1 sequence (P06731 35-676): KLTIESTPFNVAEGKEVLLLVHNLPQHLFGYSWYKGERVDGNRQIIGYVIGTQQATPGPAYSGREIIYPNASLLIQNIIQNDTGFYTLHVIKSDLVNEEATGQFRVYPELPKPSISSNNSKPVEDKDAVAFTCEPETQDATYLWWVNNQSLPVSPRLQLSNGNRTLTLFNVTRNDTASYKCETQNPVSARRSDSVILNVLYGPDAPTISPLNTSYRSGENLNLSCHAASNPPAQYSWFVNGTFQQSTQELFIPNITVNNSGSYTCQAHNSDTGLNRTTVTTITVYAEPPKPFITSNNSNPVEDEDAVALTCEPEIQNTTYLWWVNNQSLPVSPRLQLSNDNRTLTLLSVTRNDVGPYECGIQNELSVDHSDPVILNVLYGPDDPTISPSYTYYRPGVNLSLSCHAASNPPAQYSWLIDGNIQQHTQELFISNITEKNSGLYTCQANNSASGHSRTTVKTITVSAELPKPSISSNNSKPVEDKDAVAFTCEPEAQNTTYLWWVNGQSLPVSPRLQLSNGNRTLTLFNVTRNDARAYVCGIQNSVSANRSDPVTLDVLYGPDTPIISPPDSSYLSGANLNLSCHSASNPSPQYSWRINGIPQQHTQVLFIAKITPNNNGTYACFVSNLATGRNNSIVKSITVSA
Procedure: In between injections, the surfaces were regenerated with a 5 sec pulse of 10 mM Glycine-HCl pH1.5 and 1 min stabilization period. Evaluation of the association/dissociation data was performed by fitting a 1:1 interaction model (Langmuir binding model) by Biacore T100 software v2.0.3. The affinity constant KD was calculated from resulting association and dissociation rate constants ka and kd and are shown in Table 4.2. The observed affinity of the NbCEA5 Nanobody (designated as CEA#1) and humanised variant (CEA#2) was in line with the reported value.

[1] = target: T2, human IL-23R extracellular domain Fc-fusion (Homo sapiens, UniProt Q5VWK5); assay: SPR (Biacore T100) on IL-23R-Fc; format: binding
T2 construct: Fc-fusions of human IL12Rβ1, IL12Rβ2 and IL-23R extracellular domains; purchased R&D Systems #1400-IR
T2 sequence (Q5VWK5 24-355 limits assumed): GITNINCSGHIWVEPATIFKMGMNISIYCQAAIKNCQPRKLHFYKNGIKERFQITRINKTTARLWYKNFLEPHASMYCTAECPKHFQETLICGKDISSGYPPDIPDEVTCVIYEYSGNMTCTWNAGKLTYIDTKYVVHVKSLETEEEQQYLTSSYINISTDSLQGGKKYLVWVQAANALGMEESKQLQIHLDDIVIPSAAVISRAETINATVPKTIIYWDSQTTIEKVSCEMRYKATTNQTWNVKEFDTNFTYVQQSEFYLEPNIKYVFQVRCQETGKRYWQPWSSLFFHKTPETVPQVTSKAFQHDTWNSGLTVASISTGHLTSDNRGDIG
Procedure: (§1) The precise binding affinities of the purified Nanobodies were determined in a multi-cycle kinetic analysis using Surface Plasmon Resonance analysis (Biacore T100) on Fc-fusions of human IL12Rβ1, IL12Rβ2 and IL-23R extracellular domains (R&D Systems, #839-B1, #1959-B2, #1400-IR). Sensorchips CM5 were immobilized with anti-hIgG antibody (GE Healthcare, BR-1008-39), after which receptors were captured at 5 μg/ml protein and contact time of 120 seconds. Running buffer used was HBS-EP+ (GE Healthcare, BR-1006-69) at 25° C., with a flow-rate of […]. For immobilization by amine coupling, EDC/NHS was used for activation and ethanolamine HCl for deactivation (Biacore, amine coupling kit). Nanobodies were evaluated at a concentration range between 1.37 nM and 3 μM. Nanobodies were allowed to associate for 2 min and to dissociate for 15 min at a flow rate of […]. In between injections, the surfaces were regenerated with a 3 min pulse of 3M MgCl2 and 2 min stabilization period. Evaluation of the association/dissociation data was performed by fitting a 1:1 interaction model (Langmuir binding model) by Biacore TWO software v2.0.3.

[2] = target: T3, recombinant IL-3Rα ectodomain (Homo sapiens, UniProt P26951); assay: SPR (ProteOn) on recombinant IL-3Rα ectodomain; format: binding
T3 construct: Immobilisation of recombinant IL-3Rα ectodomain (Sino Biologicals) was done until 761 RU; purchased Sino Biologicals
T3 sequence (P26951 19-305 limits assumed): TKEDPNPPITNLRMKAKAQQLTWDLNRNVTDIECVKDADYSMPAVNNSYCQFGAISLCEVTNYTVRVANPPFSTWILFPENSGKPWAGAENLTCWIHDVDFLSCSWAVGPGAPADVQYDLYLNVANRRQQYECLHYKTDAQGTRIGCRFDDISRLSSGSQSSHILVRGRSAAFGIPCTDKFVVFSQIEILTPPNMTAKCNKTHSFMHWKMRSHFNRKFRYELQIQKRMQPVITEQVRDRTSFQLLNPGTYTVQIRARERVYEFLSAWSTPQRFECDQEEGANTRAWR
Procedure: The affinities of CD123 specific Nanobodies were further investigated via Surface Plasmon Resonance (SPR) at ProteOn. Immobilisation of recombinant IL-3Rα ectodomain (Sino Biologicals) was done until 761 RU. The Nanobodies were applied at a highest concentration of 1 μM, followed by a three-fold titration, covering 5 further concentrations ranging from 1 μM to 4.1 nM. These were then applied in a single injection cycle, utilising the ProteOn's specific one-shot kinetics approach for kinetic analysis. Evaluation of the association/dissociation data was performed by fitting a 1:1 interaction model (Langmuir binding model). […] For CD123 Nanobodies the obtained KD values correlated well with the apparent affinities retrieved by cell binding EC50 values (see Table 3).

[3] = target: T4, human IL12Rβ2 extracellular domain Fc-fusion (Homo sapiens, UniProt Q99665); assay: SPR (Biacore T100) on IL12Rβ2-Fc; format: binding
T4 construct: Fc-fusions of human IL12Rβ1, IL12Rβ2 and IL-23R extracellular domains; purchased R&D Systems #1959-B2
T4 sequence (Q99665 24-622 limits assumed): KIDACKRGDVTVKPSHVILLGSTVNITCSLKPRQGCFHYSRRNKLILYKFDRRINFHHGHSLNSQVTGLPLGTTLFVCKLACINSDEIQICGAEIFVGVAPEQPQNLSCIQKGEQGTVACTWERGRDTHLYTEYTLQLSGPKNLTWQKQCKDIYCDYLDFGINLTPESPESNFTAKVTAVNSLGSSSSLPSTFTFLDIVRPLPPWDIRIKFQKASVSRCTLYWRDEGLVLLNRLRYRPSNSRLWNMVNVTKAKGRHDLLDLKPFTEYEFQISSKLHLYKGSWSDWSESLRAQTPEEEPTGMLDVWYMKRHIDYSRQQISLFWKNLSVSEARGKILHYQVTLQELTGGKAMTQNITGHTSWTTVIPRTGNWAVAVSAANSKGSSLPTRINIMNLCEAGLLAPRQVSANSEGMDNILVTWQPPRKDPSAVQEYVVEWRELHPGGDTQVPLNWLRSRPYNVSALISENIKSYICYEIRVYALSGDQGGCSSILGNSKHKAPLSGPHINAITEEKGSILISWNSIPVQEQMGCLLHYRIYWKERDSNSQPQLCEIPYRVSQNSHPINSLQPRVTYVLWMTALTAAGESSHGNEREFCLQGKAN
Procedure: as §1

[4] = test system: CD8+/CD4− gated and CD4+ gated T cells; assay: Multi-colour FACS on TH1 activated T cells gated for CD8 or CD4; format: binding, human; details: donor D838; anti-flag-APC detection
Procedure: To elucidate if CD4-IL12R bispecific polypeptides preferentially bind to the CD4+/IL12R+ TH1 cell subset within the pool of T cells, Nanobody binding was analysed to a pool of activated T cells gated for either CD8 (detected by Anti-hu CD8 PE-Cy7 conjugated monoclonal antibody (BD 557746) or CD4 (detected by Anti-hu CD4 alexa Fluor 488-conjugated polyclonal antibody (R&D FAB8165G) in a multi-colour FACS experiment. Nanobody binding to the CD8+/CD4− gated cells and to CD4+ gated cells was determined using anti-flag-APC (Prozyme PJ255) detection. In this experiment TH1 activated T cells from the same donor (D838) as shown in FIG. 3.6 were used.

B1: CEA#5: NbCEA5(K43Q, G47A, T73N, V78L) (protein)
VHH: EVQLVESGGGSVQAGGSLRLSCAASGDTYGSYWMGWFRQAPGQEREAVAAINRGGGYTVYADSVKGRFTISRDNAKNTLYLQMNSLRPDDTADYYCAASGVLGGLHEDWFNYWGQGTLVTVSS
hCEACAM5 ka (hCEACAM5): 1.1e+06 M⁻¹ s⁻¹
hCEACAM5 kd (hCEACAM5): 0.0033 s⁻¹

B2: CEA#2: humanised NbCEA5 variant (S11L, A14P, K43Q, E44G, R45L, G47A, T73N, A74S, V78L, P84A, D85E, D89V) (protein)
VHH: B1 VHH with S11L, A14P, E44G, R45L, A75S, P88A, D89E, D93V
hCEACAM5 ka (hCEACAM5): 1.3e+06 M⁻¹ s⁻¹
hCEACAM5 kd (hCEACAM5): 0.0025 s⁻¹

B3: IL23R#19: IL-23R specific ligand competing Nanobody (protein)
VHH: EVQLVESGGGLVQPGGSLTLSCVASGRTFSTDVMGWFRQAPGKEREFVAAHRTSGISTVYAASVKGRFTISRDNAKNTVYLGMKSLKPEDTAVYVCAAGSDASGGYDYWGQGTLVTVSS
Binding kinetics (SPR) ka (1/Ms), IL-23R [1]: 730000 M⁻¹ s⁻¹
Binding kinetics (SPR) kd (1/s), IL-23R [1]: 0.0081 s⁻¹

B4: 55C05: CD123 building block, SEQ ID NO: 11 (protein)
VHH: EVQLVESGGGLVPAGDSLRLSCVASGRSLNTYTMGWFRQAPGKECEFVAAINWNGVYRDYADSAKGRFTASRDNAMNTVFLQMNSLKPEDTAVYFCATATQGWDRHTEPSDFGSWGLGTQVTVSS
SPR - IL-3Ra ka [2]: 126000 M⁻¹ s⁻¹
SPR - IL-3Ra kd [2]: 0.00741 s⁻¹

B5: 55B04: CD123 building block, SEQ ID NO: 9 (protein)
VHH: EVQLVESGGGLVQPGGSLRLSCAASGINFRFNSMGWWRRRAPGKEREWVAAITSGDITNYRDSVRGRFTISRDNVKNTVYLQMNTLKLEDTAVYYCNTFPPIADYWGLGTQVTVSS
SPR - IL-3Ra ka [2]: 504000 M⁻¹ s⁻¹
SPR - IL-3Ra kd [2]: 0.00794 s⁻¹

B6: 51D09: CD123 building block, SEQ ID NO: 10 (protein)
VHH: EVQLVESGGGLVQPGGSLRLSCAASGSIFSGNTMGWYRQAPGKQRELVAAISSGGSTDYADSVKGRFTISRDNSKNTVYLQMNSLRPEDTAVYYCNAAILLYRLYGYEEGDYWGLGTLVTVSS
SPR - IL-3Ra ka [2]: 37800 M⁻¹ s⁻¹
SPR - IL-3Ra kd [2]: 0.000516 s⁻¹

B7: 55F03: CD123 building block, SEQ ID NO: 13 (protein)
VHH: EVQLVESGGGLVQAGGPLRLSCAASGRTFSSYVMGWFRQAPGKEREFVAAIYWSNGKTQYTDSVKGRFTISGDNAKNTVYLQMNSLNPEDTAVYYCVADKDETGFRTLPIAYDYWGLGTQVTVSS
SPR - IL-3Ra ka [2]: 42500 M⁻¹ s⁻¹
SPR - IL-3Ra kd [2]: 0.00487 s⁻¹

B8: IL12Rb2#1: IL-12Rβ2 specific ligand competing Nanobody (protein)
VHH: EVQLVESGGRLVQAGDSLRLSCAASGRTFISYRMGWFRQAPGKEREFVAALRWSSSNIDYTYYADSVKGRFSISGDYAKNTVYLQMNSLKAEDTAVYYCAASTRWGVMESDTEYTSWGQGTLVTVSS
Binding kinetics (SPR) ka (1/Ms), IL12Rβ2 [3]: 210000 M⁻¹ s⁻¹
Binding kinetics (SPR) kd (1/s), IL12Rβ2 [3]: 0.00057 s⁻¹
binding to CD4+ gated and CD8+ gated T cells [4]: low fluorescence signals to both CD4+ and CD8+ cells

B9: IL12Rb2#2: IL-12Rβ2 specific ligand competing Nanobody (protein)
VHH: B8 VHH with I30T, A49S, S56G
Binding kinetics (SPR) ka (1/Ms), IL12Rβ2 [3]: 270000 M⁻¹ s⁻¹
Binding kinetics (SPR) kd (1/s), IL12Rβ2 [3]: 0.0018 s⁻¹

B10: 50F07: CD123 building block, SEQ ID NO: 12 (protein)
VHH: EVQLVESGGGLVQPGGSLRLSCTGSGSTFSINAMGWYRQAPGKQRELVAAITSGGRTNYADSVKGRFTISRDNSKNTVYLQMNSLRPEDTAVYYCNARISAGTAFWLWSDYEYWGLGTLVTVSS
SPR - IL-3Ra ka [2]: 102000 M⁻¹ s⁻¹
SPR - IL-3Ra kd [2]: 0.00758 s⁻¹
